Measurements reported in doi:10.1101/2021.10.11.463801 (2021).

Target: T1, JIP4[1-103] (human, UniProt O60271-1 1-103)
T1 chain: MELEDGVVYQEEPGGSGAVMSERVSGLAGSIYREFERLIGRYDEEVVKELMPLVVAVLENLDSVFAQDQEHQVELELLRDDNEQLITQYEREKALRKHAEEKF
Assay: ITC

B1: DLIC1[388-523] (domain or fragment)
chain: PTAAGRPVDASPRVPGGSPRTPNRSVSSNVASVSPIPAGSKKIDPNMKAGATSEGVLANFFNSLLSKKTGSPGGPGVSGGSPAGGAGGGSSGLPPSTKKSGQKPVLDVHAELDRITRKPVTVSPTTPTSPTEGEAS
  Kd: 4.5 µM
